Laboratory results as given in US6946255 (KO OKUMURA, dated 2005).

T1: human Fas expressed on WR19L cells (human, UniProt P25445 26-335)
T1 sequence (looked up): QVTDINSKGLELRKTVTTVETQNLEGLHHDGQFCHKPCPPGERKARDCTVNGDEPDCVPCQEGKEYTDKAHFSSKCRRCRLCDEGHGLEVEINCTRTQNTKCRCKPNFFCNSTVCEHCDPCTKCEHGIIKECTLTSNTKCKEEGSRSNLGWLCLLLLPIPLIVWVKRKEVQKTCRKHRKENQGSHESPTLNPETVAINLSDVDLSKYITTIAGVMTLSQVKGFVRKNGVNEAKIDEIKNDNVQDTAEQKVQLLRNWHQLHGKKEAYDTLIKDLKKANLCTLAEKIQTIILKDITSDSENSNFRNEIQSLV

T2: 10-mer peptide consisting of residues 1 to 10 of SEQ ID NO: 31 (immobilized on the tip of a Pepset pin)
T2 construct: One of 44 overlapping 10-mer peptides of the extracellular domain of the Fas ligand
T2 peptide: LSHKVYMRNS

T3: 10-mer peptide consisting of residues 5 to 14 of SEQ ID NO: 31 (immobilized on the tip of a Pepset pin)
T3 construct: One of 44 overlapping 10-mer peptides of the extracellular domain of the Fas ligand
T3 peptide: VYMRNSKYPQ

T4: monkey Fas ligand on activated rhesus monkey peripheral blood mononuclear cell surfaces (rhesus monkey, UniProt P63307 1-280)
T4 construct: whole, on cells; also called Fas ligand on monkey cell surfaces
T4 sequence (looked up): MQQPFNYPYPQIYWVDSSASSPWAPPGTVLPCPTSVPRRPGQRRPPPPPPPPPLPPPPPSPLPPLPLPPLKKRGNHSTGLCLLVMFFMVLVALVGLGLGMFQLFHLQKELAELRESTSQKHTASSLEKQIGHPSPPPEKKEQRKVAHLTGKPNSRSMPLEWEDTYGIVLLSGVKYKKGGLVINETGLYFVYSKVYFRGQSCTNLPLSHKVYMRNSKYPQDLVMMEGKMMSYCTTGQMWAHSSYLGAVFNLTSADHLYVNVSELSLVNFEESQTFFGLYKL

B1: soluble human Fas ligand molecule (ligand, UniProt P48023 130-281, looked up)
chain: QIGHPSPPPEKKELRKVAHLTGKSNSRSMPLEWEDTYGIVLLSGVKYKKGGLVINETGLYFVYSKVYFRGQSCNNLPLSHKVYMRNSKYPQDLVMMEGKMMSYCTTGQMWARSSYLGAVFNLTSADHLYVNVSELSLVNFEESQTFFGLYKL

How the values were obtained:
[1] = target: B1; assay: cell-based or functional assay
[2] = target: T1, human Fas expressed on WR19L cells; assay: cell-based or functional assay
[3] = target: T2, 10-mer peptide consisting of residues 1 …; assay: Pepset pin ELISA, HRP-labeled anti-mouse IgG
Method: (§1) ⑨ After the pin of the Pepset was taken out of the well of the plate, 2N H_2SO_4 was added in an amount of 50 μl to each well to stop the reaction.

[4] = target: T3, 10-mer peptide consisting of residues 5 …; assay: Pepset pin ELISA, HRP-labeled anti-mouse IgG
Method: as §1

[5] = target: T4, monkey Fas ligand on activated rhesus …; assay: flow cytometry (FACScan) on activated rhesus monkey PBMC, 1 µg antibody, PE-anti-mouse Ig's
Method: Five milliliters of peripheral blood were collected from a rhesus monkey using a heparinized syringe. After the blood was diluted to ½ with PBS, its lymphocyte fraction was recovered by the specific gravity centrifugation using Separate L. These monkey peripheral blood mononuclear lymphocytes were cultured for 2 days in a 10% FCS•RPMI 1640 medium containing 10 μg/ml of Con A to activate them. Thereafter, the cells were recovered by centrifugation, and then cultured further for a week in a 10% FCS•RPMI 1640 medium containing 50 units/ml of human IL-2 (interleukin-2). After a week, PMA and ionomycin were added to give concentrations of 10 ng/ml and 500 ng/ml, respectively, to activate the cells further for 4 hours. At this time, BB94 (matrix protease inhibitor) was added in a proportion of 10 μM at the same time. The Fas ligand was expressed in a large amount on the lymphocytes by these activation processes. After 4 hours, the cell were collected to analyze them by flow cytometry. After collecting the cells, the number of cells was first counted to adjust the cells to 1 ×10^6 cells/ml with PBS. Thereafter, the cells were placed in portions of 1 ml into tubes (Farcon No-2008), and 100 μl of control PBS, 1 μg of NOK1 antibody (100 μl of one diluted to a concentration of 10 μg/ml with PBS), 1 μg of monoclonal antibody NOK2 (similarly, 100 μl at a concentration of 10 μg/ml) and 1 μg of monoclonal antibody NOK3 (similarly, 100 μl at a concentration of […]) were separately placed in the tubes, thereby conducting a reaction for 30 minutes on an ice bath.
After the respective cultures were centrifugally washed twice with PBS. 1 µl of PE-anti-mouse Ig's were placed in the tubes to conduct a reaction further for 30 minutes on the ice bath. After the cultures were washed with PBS and separately suspended in 200 µl of PBS, they were analyzed by FACScan.

| Binder | Survival rate [1] | Survival rate [2] | binding result [3] | binding result [4] | binding result [5] |
| --- | --- | --- | --- | --- | --- |
| monoclonal antibody NOK4 (produced by Hybridoma NOK4, FERM BP-5047) (antibody, V domains shown) VH: VQLQESGPGLVKPSQSLSLTCSVTGYSITSGYYWNWIRQFPGNKLEWMGYISYDGSNNYNPSLKNRISITRDTSKNQFFLKLNSVTTEDTATYYCAVYYYDGSSFDYWGQGTTVTVSS VL: DIVLTQSPASLAVSLRQRATISCRASEGVDSYGISFMHWYQQKPGQPPKLLIYRASYLKSGVPARFSGSGSRTDFTLTIDPVEADDAATYYCQQNNEDPWTFGGGTKLEIKR | 110% | – | – | – | – |
| monoclonal antibody NOK5 (produced by Hybridoma NOK5, FERM BP-5048) (antibody, V domains shown) VH: VQLQESGAEPAKPGASVKMSCKASGYTFTTYWMHWVKQRPGQGLEWIGYINPSSGYTEYNQKFKDKATLTADKSSSTAYMQLISLTSEDSAVYYCARRGNYYYFDYWGQGTTVTVSS VL: DVLMTQTPKFLPVSAGDRVTMTCKASQSVGNNVAWYQQKPGQSPKLLIYYTSNRYTGVPDRFTGSGSGTDFTFTISSVQVEDLAVYFCQQHYSSPYTFGSGTKLE | 98.2% | – | – | – | – |
| B1 | – | 3.5% | – | – | – |
| monoclonal antibody NOK2 (produced by Hybridoma NOK2, FERM BP-5045) (antibody, V domains shown, also called NOK2 antibody) VH: VQLQQSGAELVRPGTSVKMSCKAAGYTFTNYWIGWVKQRPGHGLEWIGYLYPGGLYTNYNEKFKGKATLTADTSSSTAYMQLSSLTSEDSAIYYCARYRDYDYAMDYWGQGTTVTVSS VL: DVLMTQTPLSLPVNIGDQASISCKSTKSLLNSDGFTYLGWCLQKPGQSPQLLIYLVSNRFSGVPDRFSGSGSGTDFTLKISRVEAEDLGVYYCFQSNYLPLTFGSGTKLEIKR | 105% | – | binds | binds | binds |
| monoclonal antibody NOK3 (produced by Hybridoma NOK3, FERM BP-5046) (antibody, V domains shown, also called NOK3 antibody) VH: VKLQESGPELVKPGASVKISCKASGYAFSSSWMNWVKQRPGKGLEWIGRIYPVNGDTNYNGKFKGKATLTADKSSSTAYMQLSSLTSEDSAVYFCATDGYWYFDVWGQGTTVTVSS VL: NIVMTQSPKSMSMSVGERVTLSCKASENVDIYVSWYQQKPEQSPKLLIYGTSNRYTGVPDRFTGSGSATDFTLTISNVQAEDLSDYYCVQSYSYPWTFGGGTKLEIKR | 101% | – | – | – | binds |
| monoclonal antibody NOK1 (produced by Hybridoma NOK1, FERM BP-5044) (antibody, V domains shown, Used as hybridoma culture supernatant, as antibody purified from ascites, biotin-labelled, or coupled to Sepharose beads; also called NOK1 antibody; biotinized monoclonal antibody NOK1) VH: VQLQESGPELVKPGASVKISCKASGYAFSSSWMNWVKQRPGKGLEWIGRIYPGDGDTNDNGKFKGKATLTADKSSSTAYMQLSSLTSEDSAVYFCARSYYYDGSPWFTYWGQGTTVTVSS VL: DIQMTQSPSSLSASLGDRVTISCRASQDISNYLNWYQQKPDGTVKLLIYYTSRLHSGVPSRFSGSGSGTDYSLTISNLEPEDIATYFCQQYSEFPWTFGGGTKLEIKR | 99.3% | – | – | – | binds |
